Laboratory results reported in patent US20170022281A1 (AbbVie / Abbott, published 2017).
Numbering of substitutions follows the chain as printed.

T1: human PRLR ECD-Fc fusion protein (human, UniProt P16471 25-233)
T1 construct: not shown: Fc region (captured by goat anti-human Fc)
T1 sequence: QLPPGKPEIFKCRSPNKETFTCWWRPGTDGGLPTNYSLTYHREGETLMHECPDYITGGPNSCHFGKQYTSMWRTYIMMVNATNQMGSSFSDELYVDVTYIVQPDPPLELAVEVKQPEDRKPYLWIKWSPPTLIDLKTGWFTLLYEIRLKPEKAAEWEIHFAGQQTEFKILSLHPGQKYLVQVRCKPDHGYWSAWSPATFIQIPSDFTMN

T2: rat PRLR ECD-Fc fusion protein (rat, UniProt P05710 20-229)
T2 construct: extracellular domain; not shown: Fc region (captured by goat anti-human Fc)
T2 sequence (looked up): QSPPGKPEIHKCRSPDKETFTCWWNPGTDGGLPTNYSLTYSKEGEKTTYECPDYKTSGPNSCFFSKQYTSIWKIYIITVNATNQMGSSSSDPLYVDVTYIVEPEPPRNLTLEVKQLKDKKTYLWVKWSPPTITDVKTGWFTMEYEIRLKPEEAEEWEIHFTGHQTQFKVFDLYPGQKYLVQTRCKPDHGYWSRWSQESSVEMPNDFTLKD

T3: mouse PRLR ECD-Fc fusion protein (mouse, UniProt Q08501 20-229)
T3 construct: extracellular domain; not shown: Fc region (captured by goat anti-human Fc)
T3 sequence (looked up): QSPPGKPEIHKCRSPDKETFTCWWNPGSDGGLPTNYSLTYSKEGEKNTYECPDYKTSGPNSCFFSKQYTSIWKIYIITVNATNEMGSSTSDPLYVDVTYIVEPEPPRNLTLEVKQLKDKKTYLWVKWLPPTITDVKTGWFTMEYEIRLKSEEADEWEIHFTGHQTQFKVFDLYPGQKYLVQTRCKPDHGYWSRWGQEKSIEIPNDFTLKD

T4: human PRLR on cells (human, UniProt P16471 25-622)
T4 sequence: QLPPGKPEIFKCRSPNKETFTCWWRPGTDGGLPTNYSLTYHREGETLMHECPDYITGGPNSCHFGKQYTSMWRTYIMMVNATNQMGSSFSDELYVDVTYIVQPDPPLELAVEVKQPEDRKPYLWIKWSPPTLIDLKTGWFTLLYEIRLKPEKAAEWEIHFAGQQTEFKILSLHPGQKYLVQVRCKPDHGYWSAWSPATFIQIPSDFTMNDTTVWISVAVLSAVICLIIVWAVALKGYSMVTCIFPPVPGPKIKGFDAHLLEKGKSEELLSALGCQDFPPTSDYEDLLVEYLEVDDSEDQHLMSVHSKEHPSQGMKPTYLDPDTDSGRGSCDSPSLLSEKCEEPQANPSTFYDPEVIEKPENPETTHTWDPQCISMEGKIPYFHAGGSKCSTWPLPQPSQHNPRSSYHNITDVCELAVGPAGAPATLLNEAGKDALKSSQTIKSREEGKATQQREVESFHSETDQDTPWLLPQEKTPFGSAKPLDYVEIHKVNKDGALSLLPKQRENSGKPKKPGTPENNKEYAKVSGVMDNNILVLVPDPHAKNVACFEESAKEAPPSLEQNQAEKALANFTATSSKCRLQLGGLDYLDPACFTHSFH

T5: human PRLR (Biacore antigen) (human, UniProt P16471 25-234, limits assumed)
T5 construct: The construct injected over captured antibody is not described (a soluble form is likely); also called huPRLR
T5 sequence: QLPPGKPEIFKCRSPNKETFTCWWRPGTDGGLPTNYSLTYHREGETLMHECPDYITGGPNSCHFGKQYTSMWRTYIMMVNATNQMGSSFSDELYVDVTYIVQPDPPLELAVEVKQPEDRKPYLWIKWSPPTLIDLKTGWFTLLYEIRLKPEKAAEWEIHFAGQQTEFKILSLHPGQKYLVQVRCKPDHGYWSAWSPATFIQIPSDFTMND

T6: cyno PRLR (Biacore antigen) (cyno, UniProt A0A2K5WXK1 25-234)
T6 construct: also called cyPRLR
T6 sequence: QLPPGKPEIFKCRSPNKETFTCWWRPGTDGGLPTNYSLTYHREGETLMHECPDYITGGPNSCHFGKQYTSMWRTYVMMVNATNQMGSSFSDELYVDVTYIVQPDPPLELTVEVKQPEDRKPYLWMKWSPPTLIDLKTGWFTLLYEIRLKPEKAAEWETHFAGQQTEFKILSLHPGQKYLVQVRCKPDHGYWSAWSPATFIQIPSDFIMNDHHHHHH

T7: murine PRLR (Biacore antigen) (murine, UniProt Q08501 20-229, limits assumed)
T7 construct: also called muPRLR
T7 sequence (looked up): T3 sequence (looked up)

T8: mouse PRLR on Baf3-mPRLR cells (mouse, UniProt Q08501 20-608)
T8 construct: whole, on cells
T8 sequence (looked up): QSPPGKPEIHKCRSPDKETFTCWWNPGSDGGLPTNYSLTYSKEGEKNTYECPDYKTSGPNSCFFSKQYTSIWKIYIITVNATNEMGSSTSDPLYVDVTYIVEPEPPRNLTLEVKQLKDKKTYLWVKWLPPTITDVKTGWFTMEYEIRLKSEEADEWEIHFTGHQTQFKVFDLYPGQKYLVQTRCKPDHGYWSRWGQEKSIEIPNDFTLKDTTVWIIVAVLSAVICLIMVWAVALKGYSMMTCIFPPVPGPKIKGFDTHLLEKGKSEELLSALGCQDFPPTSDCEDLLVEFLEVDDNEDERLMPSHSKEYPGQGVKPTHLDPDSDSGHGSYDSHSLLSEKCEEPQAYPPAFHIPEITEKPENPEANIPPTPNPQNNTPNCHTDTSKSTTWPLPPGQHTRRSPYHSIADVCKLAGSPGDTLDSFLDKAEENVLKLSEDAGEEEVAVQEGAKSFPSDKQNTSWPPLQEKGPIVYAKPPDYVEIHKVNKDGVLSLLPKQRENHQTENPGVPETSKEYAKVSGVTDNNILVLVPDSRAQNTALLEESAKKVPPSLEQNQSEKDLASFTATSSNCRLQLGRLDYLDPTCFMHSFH

T9: rat PRLR on Nb2-11 rat lymphoma cells (rat, UniProt P05710 20-610)
T9 sequence (looked up): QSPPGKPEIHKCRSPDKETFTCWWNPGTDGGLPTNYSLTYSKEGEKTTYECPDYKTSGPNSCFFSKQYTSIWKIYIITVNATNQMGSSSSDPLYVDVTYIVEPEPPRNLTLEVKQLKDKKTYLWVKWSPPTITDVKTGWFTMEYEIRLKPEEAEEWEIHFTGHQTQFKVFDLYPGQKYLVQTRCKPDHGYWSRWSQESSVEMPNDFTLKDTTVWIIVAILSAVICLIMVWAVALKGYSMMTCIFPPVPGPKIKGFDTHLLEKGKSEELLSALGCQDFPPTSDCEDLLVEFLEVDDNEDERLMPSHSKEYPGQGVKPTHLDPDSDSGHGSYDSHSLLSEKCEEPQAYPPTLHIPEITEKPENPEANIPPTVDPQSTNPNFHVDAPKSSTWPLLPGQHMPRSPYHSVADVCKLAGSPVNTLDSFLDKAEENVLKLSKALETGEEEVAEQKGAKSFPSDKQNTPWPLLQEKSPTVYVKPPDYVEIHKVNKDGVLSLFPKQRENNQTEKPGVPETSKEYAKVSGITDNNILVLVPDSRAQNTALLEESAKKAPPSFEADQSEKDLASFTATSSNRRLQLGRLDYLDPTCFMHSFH

T10: cyno PRLR ECD-his6 protein (cyno)
T10 chain: T6 sequence

B1: Ab8 (antibody, V domains shown)
VH: EVQLQQSGPELVKPGASVKISCKASGYTFTDYNIHWVKQSHGKSLEWIGYIYPNNDGTGYNQKFKSKATLTVDNSSSTAYMEVRSLTSEDSAVYYCARGDGNYVGDMDYWGQGTSVTVSS
VL: DIQMTQSPASLSASVGETVTITCRASENIYSYLAWYQQKQGKPPQLLVYNAKTLAEGVPSRFSGGGSGTQFSLKINSLQPEDFGSYYCQHHYATPFTFGSGTKLEIK
notes: murine monoclonal, isotype G2b; also called murine Ab8
B2: Ab9 (antibody, V domains shown)
VH: EVQLQQSGPELVRPGASVKISCKASGYSFTDYNMHWVKQSHGKSLEWIGYIYPYNGGAGYNQKFKSKATMNVGISSSTAYMELRSLTSEDSAVYYCARGDGNYVGDMDYWGQGTSVTVSS
VL: B1 VL with P43S, G65S, Y92S, A93G
notes: murine monoclonal, isotype G2b; also called murine Ab9
B3: Ab31 (antibody, human IgG1, kappa)
heavy: not shown
light: DVVMTQTPLSLSVTPGQPASISCRSSQRLVHSNGNTYLHWYLQKPGQSPQLLIYKVSNRFSGVPDRFSGSGSGTDFTLKISRVEAEDVGVYYCSQSTHVPWTFGGGTKVEIKRTVAAPSVFIFPPSDEQLKSGTASVVCLLNNFYPREAKVQWKVDNALQSGNSQESVTEQDSKDSTYSLSSTLTLSKADYEKHKVYACEVTHQGLSSPVTKSFNRGEC
notes: humanized from Ab5; G1; also called Ab2 HC.1a and Ab2 LC.1b
B4: chAb12 (antibody, human IgG1, kappa, V domains shown)
VH: DVQLQESGPGLVKPSQSLSLTCTVTGYSITSDYAWNWIRQFPGNKLEWMGYIGYSGRTSFNPSLKSRISITRDTSKNQFFLQLNSVTTEDTATYYCARGGFAMDYWGQGTSVTVSS
VL: QIVLTQSPGIMSASPGEKVTMTCSASSSVTYMYWYQQKPRSSPKPWIYLTSNLASGVPARFSGSGSGTSYSLTISSMEAEDGATYYCQQWSSTPPLTFGGGTKLELNT

Experiments:
[1] = target: T1, human PRLR ECD-Fc fusion protein; experiment: ELISA on ECD
Outline: (§1)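 EC50 values derive from fitted binding curves of antibody serial dilutions (1 h) on captured PRLR. Detection used an HRP-conjugated secondary (1 h), TMB development for 3–5 min, an H₂SO₄ stop and a 450 nm read, with all steps in Tween/PBS pH 7.4 buffer.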

[2] = target: T2, rat PRLR ECD-Fc fusion protein; experiment: ELISA on ECD
Outline: as §1

[3] = target: T3, mouse PRLR ECD-Fc fusion protein; experiment: ELISA on ECD
Outline: as §1

human PRLR on cells [4] = target: T4, human PRLR on cells; experiment: cell-based or functional assay
[5] = target: cyno PRLR on Baf3-cyPRLR cells (cyno); experiment: cell-based or functional assay
[6] = target: T5, human PRLR (Biacore antigen); experiment: SPR Biacore
Outline: (§2)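 Association rate, dissociation rate and dissociation constant were measured by surface plasmon resonance on a Biacore instrument. PRLR antigen was tested at 600 nM, 66.67 nM and 7.41 nM, a 3-point, 9-fold dilution series. Constants came from a 1:1 binding model fit (local Rmax, mass-transport term included) in Biacore T200 Evaluation Software.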

[7] = target: T6, cyno PRLR (Biacore antigen); experiment: SPR Biacore
Outline: as §2

[8] = target: T7, murine PRLR (Biacore antigen); experiment: SPR Biacore
Outline: as §2

human PRLR on cells [9] = target: T4, human PRLR on cells; experiment: FACS T47D 10 ug/mL
[10] = target: T8, mouse PRLR on Baf3-mPRLR cells; experiment: FACS Baf3-mPRLR 10 ug/mL
Description: (§3) Nb2-11 and Baf3-xPRLR cells were resuspended in FACS buffer (PBS+1% FBS) at 2 millions cells/mL. Cells were added to round bottom 96-well plate (100 uL/well) and treated with testing PRLR antibodies for 1 hr at 4 C. Cells were then washed with FACS buffer twice and incubated with 2nd antibody conjugated to ALEXA488 (Invitrogen) for 1 hr at 4 C. After two washes in FACS buffer, cells were resuspended in 1% formaldehyde in PBS. Cells were analyzed using LSRII flowcytometer.

[11] = target: T8, mouse PRLR on Baf3-mPRLR cells; experiment: cell-based or functional assay
[12] = target: T9, rat PRLR on Nb2-11 rat lymphoma cells; experiment: cell-based or functional assay
[13] = target: T9, rat PRLR on Nb2-11 rat lymphoma cells; experiment: FACS Nb2-11 20 ug/mL
Description: as §3

[14] = target: T10, cyno PRLR ECD-his6 protein; experiment: ELISA on ECD
Outline: as §1

Row | Binder | EC50 [1] [nM] | EC50 [2] [nM] | EC50 [3] [nM] | Baf3-hPRLR proliferation IC50 (human PRLR on cells [4]) [µg/mL] | T47D pPRLR ELISA IC50 (human PRLR on cells [4]) [µg/mL] | Baf3-cyPRLR proliferation IC50 [5] [µg/mL] | Kd [6] [nM] | koff [6] [s⁻¹] | kon [6] [M⁻¹ s⁻¹] | Kd [7] [nM] | koff [7] [s⁻¹] | kon [7] [M⁻¹ s⁻¹] | Kd [8] [nM] | koff [8] [s⁻¹] | kon [8] [M⁻¹ s⁻¹] | FACS GeoMean-neg (human PRLR on cells [9]) | Nb2-11 proliferation IC50 [12] [µg/mL] | other results
1 | B1 | 0.098 | 0.205 | 0.342 | 1.15 | 0.219 | 1.64 | 0.153 | 8.19e-05 | 536000 | 2.2 | 0.00116 | 526000 | 259 | 0.0466 | 180000 | 1530 |  | 
2 | B2 | 0.072 |  |  | 0.51 | 0.072 | 6.4 | 0.226 | 0.000131 | 577000 |  |  |  |  |  |  | 1870 | > 30 | FACS GeoMean-neg [10]: 1; Baf3-mPRLR proliferation IC50 [11]: > 30 µg/mL; FACS GeoMean-neg [13]: 0
3 | B3 | 0.453 | 0.718 | 0.333 | 0.17 |  | 0.39 | 1.67 | 0.000537 | 322000 | 2.08 | 0.000643 | 310000 | 55.7 | 0.00682 | 122000 |  |  | EC50 [14]: 0.256 nM
4 | B4 |  |  |  | 10.7 |  | > 10 |  |  |  |  |  |  |  |  |  |  | 41.4 | 
